In this assay the target is IGF-I receptor (human (endogenous in HT-29)) (UniProt P08069).

In article PMC2276513 one finds proliferation of HT-29 cells (modified Alamar Blue assay), 48 h with 0.001-1 uM M1557 in medium with 10% FBS: percent inhibition data, which are given here for 1 molecule.

Non-standard residues stand in square brackets, D forms with d. No end group written: not given here. *: point of attachment. Acm = CC(=O)NC*

UniProt P08069, sequence (P08069 31-1367): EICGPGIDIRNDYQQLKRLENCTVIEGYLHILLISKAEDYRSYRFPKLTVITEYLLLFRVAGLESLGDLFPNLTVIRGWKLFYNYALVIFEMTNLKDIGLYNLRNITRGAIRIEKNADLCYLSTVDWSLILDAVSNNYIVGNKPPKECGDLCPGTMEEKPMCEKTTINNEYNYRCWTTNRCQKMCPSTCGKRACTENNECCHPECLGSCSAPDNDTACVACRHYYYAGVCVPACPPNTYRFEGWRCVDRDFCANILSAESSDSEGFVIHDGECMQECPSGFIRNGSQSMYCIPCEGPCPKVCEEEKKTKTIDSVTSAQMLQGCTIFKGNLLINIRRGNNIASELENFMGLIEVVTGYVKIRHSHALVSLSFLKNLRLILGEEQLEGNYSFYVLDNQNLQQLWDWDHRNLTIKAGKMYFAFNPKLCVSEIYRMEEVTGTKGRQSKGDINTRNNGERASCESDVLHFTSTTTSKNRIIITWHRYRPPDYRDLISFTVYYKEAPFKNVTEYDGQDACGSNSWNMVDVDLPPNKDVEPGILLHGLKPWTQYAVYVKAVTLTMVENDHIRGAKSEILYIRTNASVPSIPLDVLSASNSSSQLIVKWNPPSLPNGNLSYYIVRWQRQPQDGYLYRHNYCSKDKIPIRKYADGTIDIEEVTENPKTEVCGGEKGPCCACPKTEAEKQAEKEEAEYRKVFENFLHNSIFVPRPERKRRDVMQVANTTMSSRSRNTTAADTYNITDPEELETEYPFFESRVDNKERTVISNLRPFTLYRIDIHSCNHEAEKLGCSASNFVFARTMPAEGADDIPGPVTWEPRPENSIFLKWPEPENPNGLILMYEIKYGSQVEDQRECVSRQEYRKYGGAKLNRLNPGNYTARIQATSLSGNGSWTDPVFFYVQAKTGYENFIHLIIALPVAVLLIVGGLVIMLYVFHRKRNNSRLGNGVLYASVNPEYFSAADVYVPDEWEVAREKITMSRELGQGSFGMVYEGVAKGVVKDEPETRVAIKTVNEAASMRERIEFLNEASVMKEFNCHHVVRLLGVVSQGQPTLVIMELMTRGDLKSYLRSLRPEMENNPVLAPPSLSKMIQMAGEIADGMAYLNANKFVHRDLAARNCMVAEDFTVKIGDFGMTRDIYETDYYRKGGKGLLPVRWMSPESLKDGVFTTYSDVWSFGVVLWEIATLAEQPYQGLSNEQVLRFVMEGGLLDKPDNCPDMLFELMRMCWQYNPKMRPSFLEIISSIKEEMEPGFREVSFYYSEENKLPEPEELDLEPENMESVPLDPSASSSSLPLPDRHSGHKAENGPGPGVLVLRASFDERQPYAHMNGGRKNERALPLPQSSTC

B1: IGF-I D domain analogue peptide (M1557) (peptide)
peptide: [dY]C(Acm)[dA][dP][dL][dK][dP][dA][dK][dS][dA]-NH2
modifications: N-terminus assumed
SMILES: CC(=O)NCSC[C@H](NC(=O)[C@H](N)Cc1ccc(O)cc1)C(=O)N[C@H](C)C(=O)N1CCC[C@@H]1C(=O)N[C@H](CC(C)C)C(=O)N[C@H](CCCCN)C(=O)N1CCC[C@@H]1C(=O)N[C@H](C)C(=O)N[C@H](CCCCN)C(=O)N[C@H](CO)C(=O)N[C@H](C)C(N)=O
Regarding B1, the proliferation of HT-29 cells (modified Alamar Blue assay), 48 h with 0.001-1 uM M1557 in medium with 10% FBS: percent inhibition is 14 to 15%.
